From patent US20160031996A1 (CSL, published 2016)
Changes are numbered by the printed parent chain. Blank lines part the entries; values can stand above or below the binder they belong to.

What was measured:
wild-type human GM-CSFRα = target: T1, wild-type human GM-CSFRα (human, UniProt P15509 23-400); experiment: Western blot, whole cell extracts
T1 construct: whole, on cells; negative control, on 293F cells; also called GM-CSFRa
T1 sequence (looked up): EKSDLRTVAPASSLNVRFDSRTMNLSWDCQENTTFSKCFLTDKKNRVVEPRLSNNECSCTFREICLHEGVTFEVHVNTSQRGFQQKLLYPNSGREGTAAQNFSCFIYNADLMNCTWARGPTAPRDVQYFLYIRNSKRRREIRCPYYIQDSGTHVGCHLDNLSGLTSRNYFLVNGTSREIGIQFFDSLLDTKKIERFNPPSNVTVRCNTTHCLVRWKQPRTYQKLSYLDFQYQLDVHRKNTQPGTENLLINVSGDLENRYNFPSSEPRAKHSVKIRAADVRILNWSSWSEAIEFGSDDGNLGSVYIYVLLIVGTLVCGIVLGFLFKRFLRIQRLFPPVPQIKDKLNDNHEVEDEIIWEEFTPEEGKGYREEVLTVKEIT

[1] = target: T2, human IL-3Rα I94A, full length (human, UniProt P26951 19-378); experiment: Western blot, whole cell extracts of 293F cells
T2 construct: expressed in 293F cells; Western blot of whole cell extracts; also called I94, cell surface alanine
T2 sequence: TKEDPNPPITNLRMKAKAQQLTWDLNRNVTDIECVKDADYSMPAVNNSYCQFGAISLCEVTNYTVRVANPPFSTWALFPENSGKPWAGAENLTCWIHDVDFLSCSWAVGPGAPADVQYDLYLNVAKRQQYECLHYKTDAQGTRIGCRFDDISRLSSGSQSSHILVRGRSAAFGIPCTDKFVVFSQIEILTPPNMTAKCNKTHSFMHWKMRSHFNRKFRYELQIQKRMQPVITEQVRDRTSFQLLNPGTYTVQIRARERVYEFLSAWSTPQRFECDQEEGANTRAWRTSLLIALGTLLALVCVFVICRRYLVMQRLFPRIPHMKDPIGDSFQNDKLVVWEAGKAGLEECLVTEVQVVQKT

[2] = target: T3, full length human IL-3Rα, wild type (human, UniProt P26951 19-378); experiment: flow cytometry, MFI normalised to WT (reference, set as 100%)
T3 construct: expressed in 293F cells; also called WT
T3 sequence: T2 sequence with A76I
Protocol: Median fluorescence intensity (MFI) of each antibody was determined for WT IL-3Rα and for each IL-3Rα mutant. The MFI of WT IL-3Rα staining for each antibody was set as 100% then the MFI of each mutant was normalized to a percent of WT staining.

[3] = target: T4, soluble human IL-3Rα 1-306-His I50A (human, UniProt P26951 19-307); experiment: Western blot, supernatants of 293FS cells
T4 construct: supernatant of 293FS cells; also called I50, soluble alanine
T4 sequence: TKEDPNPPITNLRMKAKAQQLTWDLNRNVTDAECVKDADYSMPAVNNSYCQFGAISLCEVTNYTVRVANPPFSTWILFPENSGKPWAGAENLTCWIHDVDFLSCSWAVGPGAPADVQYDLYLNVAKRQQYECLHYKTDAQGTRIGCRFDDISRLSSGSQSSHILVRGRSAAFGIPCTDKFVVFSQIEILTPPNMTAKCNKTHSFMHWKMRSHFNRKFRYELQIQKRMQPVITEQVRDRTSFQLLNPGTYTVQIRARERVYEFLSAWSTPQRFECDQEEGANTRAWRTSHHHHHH

[4] = target: T5, soluble human IL-3Rα 1-306-His E51A (human, UniProt P26951 19-307); experiment: Western blot, supernatants of 293FS cells
T5 construct: supernatant of 293FS cells; also called E51, soluble alanine
T5 sequence: T4 sequence with A32I, E33A

[5] = target: T6, soluble human IL-3Rα 1-306-His Y67A (human, UniProt P26951 19-307); experiment: Western blot, supernatants of 293FS cells
T6 construct: supernatant of 293FS cells; also called Y67, soluble alanine
T6 sequence: T4 sequence with A32I, Y49A

[6] = target: T7, soluble human IL-3Rα 1-306-His P97A (human, UniProt P26951 19-307); experiment: Western blot, supernatants of 293FS cells
T7 construct: supernatant of 293FS cells; also called P97, soluble alanine
T7 sequence: T4 sequence with A32I, P79A

binding result (wild-type human GM-CSFRα): no binding
binding result [1]: no binding
MFI as percent of WT staining [2]: 100 % of WT MFI
B1: monoclonal antibody 7G3 (antibody, V domains shown)
VH: EVQLQQSGPELVKPGASVKMSCKASGYTFTDYYMKWVKQSHGKSLEWIGDIIPSNGATFYNQKFKGKATLTVDRSSSTAYMHLNSLTSEDSAVYYCTRSHLLRASWFAYWGQGTLVTVSA
VL: DFVMTQSPSSLTVTAGEKVTMSCKSSQSLLNSGNQKNYLTWYLQKPGQPPKLLIYWASTRESGVPDRFTGSGSGTDFTLTISSVQAEDLAVYYCQNDYSYPYTFGGGTKLEIKR
notes: mouse monoclonal antibody (hybridoma ATCC HB-12009)

binding result [3]: no binding
binding result [4]: no binding
binding result [5]: no binding
binding result [6]: no binding
B2: antibody CSL362 (antibody, V domains shown)
VH: EVQLVQSGAEVKKPGESLKISCKGSGYSFTDYYMKWARQMPGKGLEWMGDIIPSNGATFYNQKFKGQVTISADKSISTTYLQWSSLKASDTAMYYCARSHLLRASWFAYWGQGTMVTVSS
VL: DIVMTQSPDSLAVSLGERATINCESSQSLLNSGNQKNYLTWYQQKPGQPPKPLIYWASTRESGVPDRFSGSGSGTDFTLTISSLQAEDVAVYYCQNDYSYPYTFGQGTKLEIKR
